# Measured values from US20210230294A1 (Incyte, published 2021).
# Numbering of substitutions follows the chain as printed. Names may count otherwise.
# T1: mouse CD73 (SEQ ID NO:71) (mouse, UniProt Q61503 29-551)
# T1 construct: Open conformation (normal SPR running buffer); also called Murine; murine CD73
# T1 sequence: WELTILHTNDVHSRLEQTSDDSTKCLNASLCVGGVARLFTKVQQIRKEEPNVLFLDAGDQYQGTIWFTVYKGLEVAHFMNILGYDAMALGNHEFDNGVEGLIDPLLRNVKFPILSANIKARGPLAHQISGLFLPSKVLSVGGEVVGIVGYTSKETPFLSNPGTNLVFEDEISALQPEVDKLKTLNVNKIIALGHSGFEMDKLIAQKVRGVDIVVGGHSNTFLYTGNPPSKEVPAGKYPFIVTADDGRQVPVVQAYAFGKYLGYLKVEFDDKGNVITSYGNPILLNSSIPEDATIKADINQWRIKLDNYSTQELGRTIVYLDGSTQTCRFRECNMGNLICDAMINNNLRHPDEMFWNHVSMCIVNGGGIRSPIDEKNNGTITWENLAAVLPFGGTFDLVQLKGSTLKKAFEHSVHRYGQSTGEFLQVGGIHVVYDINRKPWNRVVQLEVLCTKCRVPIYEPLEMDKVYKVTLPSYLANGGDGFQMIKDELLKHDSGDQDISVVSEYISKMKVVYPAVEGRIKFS
# T2: recombinant human CD73 (SEQ ID NO:70) (human, UniProt P21589 27-549)
# T2 construct: Soluble recombinant protein in normal SPR running buffer (open conformation), the soluble enzyme assay and HDX-MS; SPR stock bought from BPS Bioscience; also called rhuCD73; CD73 in the open conformation
# T2 sequence: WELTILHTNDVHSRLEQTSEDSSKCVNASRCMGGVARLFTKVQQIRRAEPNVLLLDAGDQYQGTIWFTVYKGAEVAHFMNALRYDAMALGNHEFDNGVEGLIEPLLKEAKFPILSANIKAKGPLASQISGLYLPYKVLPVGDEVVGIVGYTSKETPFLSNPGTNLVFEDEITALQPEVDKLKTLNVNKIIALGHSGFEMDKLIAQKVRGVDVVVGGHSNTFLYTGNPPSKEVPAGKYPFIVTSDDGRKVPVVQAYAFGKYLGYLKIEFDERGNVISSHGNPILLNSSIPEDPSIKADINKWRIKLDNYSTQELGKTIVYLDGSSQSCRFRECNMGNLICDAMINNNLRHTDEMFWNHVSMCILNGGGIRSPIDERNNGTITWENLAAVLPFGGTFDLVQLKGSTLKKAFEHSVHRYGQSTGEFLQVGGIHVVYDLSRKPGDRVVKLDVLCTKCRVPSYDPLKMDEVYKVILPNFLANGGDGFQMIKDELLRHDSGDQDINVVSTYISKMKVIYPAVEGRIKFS
# T3: cynomolgus CD73 (SEQ ID NO:72) (cynomolgus, UniProt P21589 27-549 (human entry))
# T3 construct: Open conformation (normal SPR running buffer)
# T3 chain: T2 sequence with M199T, T350A, V466I
# T4: human CD73 on the cell surface (MDA-MB-231 and A375 cells) (human, UniProt P21589 27-549)
# T4 construct: also called cell surface CD73; cellular CD73
# T4 sequence: T2 sequence
# B1: HzCL25 (antibody, human IgG1, kappa, N297A, V domains shown)
# VH: EVQLVQSGAEVKKPGESLKISCKGSGYTFTSYGLSWVRQMPGKGLEWMGEIYPGSGNTYYNEKFKGQVTISADKSISTAYLQWSSLKASDTAMYYCARYDYLGSSYGFDYWGAGTTVTVSS
# VL: DIVMTQSPDSLAVSLGERATINCKASQDVSTAVAWYQQKPGQPPKLLIYSASYRYSGVPDRFSGSGSGTDFTLTISSLQAEDVAVYYCQQHYNTPYTFGGGTKLEIKR
# notes: Humanized IgG1/kappa with N297A; also called humanized CL25
# B2: 3-F03 (full-length human antibody) (antibody, human IgG1, kappa, N297A)
# heavy: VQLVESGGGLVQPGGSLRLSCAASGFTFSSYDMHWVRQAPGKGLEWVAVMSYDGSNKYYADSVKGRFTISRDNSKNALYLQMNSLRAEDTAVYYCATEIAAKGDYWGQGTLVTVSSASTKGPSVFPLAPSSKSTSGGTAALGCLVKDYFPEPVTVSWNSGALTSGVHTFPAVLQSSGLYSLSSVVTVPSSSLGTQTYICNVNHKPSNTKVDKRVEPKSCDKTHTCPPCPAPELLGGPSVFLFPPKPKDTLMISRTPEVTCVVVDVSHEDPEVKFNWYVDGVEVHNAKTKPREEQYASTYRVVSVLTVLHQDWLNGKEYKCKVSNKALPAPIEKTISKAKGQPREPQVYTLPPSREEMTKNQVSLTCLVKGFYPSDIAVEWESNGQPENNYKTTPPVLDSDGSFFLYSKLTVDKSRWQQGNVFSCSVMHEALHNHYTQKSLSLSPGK
# light: IQMTQSPSSLSASVGDRVTITCRASQGISNYLAWYQQKPGKAPKLLIYAASTLQSGVPSRFSGSGSGTDFTLTISSLQPEDFATYYCQQSYSTPHFGQGTRLEIKRTVAAPSVFIFPPSDEQLKSGTASVVCLLNNFYPREAKVQWKVDNALQSGNSQESVTEQDSKDSTYSLSSTLTLSKADYEKHKVYACEVTHQGLSSPVTKSFNRGEC
# notes: Human IgG1/kappa with N297A; also called Antibody 3-F03; Clone 3-F03
# B3: CL25_hu_11-4 (antibody, V domains shown)
# VH: QVQLVQSGAEVKKPGASVKVSCKASGYTFTSYGLSWVRQATGQGLEWMGEIYPGSGNTYYNEKFKGRVTMTANTSISTAYMELSSLRSEDTAVYYCARYDYLGSSYGFDYWGAGTTVTVSS
# VL: DIQMTQSPSSLSASVGDRVTITCKASQDVSTAVAWYQQKPGKAPKLLLYSASYRYSGVPSRFSGSGSGTDYTLTISSLQPEDFATYYCQQHYNTPYTFGGGTKLEIK
# notes: Humanized CL25 antibody
# B4: CL25_hu_10-4 (antibody, V domains shown)
# VH: B1 VH
# VL: B3 VL
# notes: Humanized CL25 antibody
# B5: CL25_hu_9-6 (antibody, V domains shown)
# VH: B3 VH with A16S, T41P, M70I, N73D, T74E, I76T
# VL: B3 VL with D1A, Q3R, L11F, V15T, L48I, Y71F, S77C, P80S
# notes: Humanized CL25 antibody
# B6: CL25_hu_11-5 (antibody, V domains shown)
# VH: B3 VH
# VL: DIVMTQSPDSLAVSLGERATINCKASQDVSTAVAWYQQKPGQPPKLLIYSASYRYSGVPDRFSGSGSGTDFTLTISSLQAEDVAVYYCQQHYNTPYTFGGGTKLEIK
# notes: Humanized CL25 antibody
# B7: CL25_hu_11-6 (antibody, V domains shown)
# VH: B3 VH
# VL: B3 VL with D1A, Q3R, L11F, V15T, L48I, Y71F, S77C, P80S
# notes: Humanized CL25 antibody
# B8: CL25_hu_8-5 (antibody, V domains shown)
# VH: B3 VH with A72R
# VL: B6 VL
# notes: Humanized CL25 antibody
# B9: CL25_hu_9-5 (antibody, V domains shown)
# VH: B3 VH with A16S, T41P, M70I, N73D, T74E, I76T
# VL: B6 VL
# notes: Humanized CL25 antibody
# B10: CL25_hu_9-4 (antibody, V domains shown)
# VH: B3 VH with A16S, T41P, M70I, N73D, T74E, I76T
# VL: B3 VL
# notes: Humanized CL25 antibody
# B11: CL25_hu_8-4 (antibody, V domains shown)
# VH: B3 VH with A72R
# VL: B3 VL
# notes: Humanized CL25 antibody; captured by anti-human Fc in SPR
# B12: CL25_hu_8-6 (antibody, V domains shown)
# VH: B3 VH with A72R
# VL: B3 VL with D1A, Q3R, L11F, V15T, L48I, Y71F, S77C, P80S
# notes: Humanized CL25 antibody
# B13: CL25_hu_10-6 (antibody, V domains shown)
# VH: B1 VH
# VL: B3 VL with D1A, Q3R, L11F, V15T, L48I, Y71F, S77C, P80S
# notes: Humanized CL25 antibody
# B14: 3-F03_411 (antibody, human IgG1, kappa, N297A)
# heavy: not shown
# light: B2 light
# Target: T1, mouse CD73 (SEQ ID NO:71)
# Assay: SPR (Biacore 8K), antibody captured on anti-human Fc, CD73 as analyte, open conformation
# Method: (§1) The SPR running buffer (10 mM HEPES, 150 mM NaCl, 3 mM EDTA and 0.05% v/v Surfactant P20, pH 7.4) was prepared from 10×HBS-EP Buffer (GE Healthcare). Anti-human Fc antibodies (GE Healthcare) were immobilized via amine coupling on all sixteen flow cells of an S series sensor chip CM5 (GE Healthcare). The immobilization levels were ˜9000 RU for all flow cells. […] The non-cleavable ADP analogue APCP (adenosine-5′-(α,β-methylene) diphosphate) with the presence of Zn²⁺ can be used to shift the CD73 conformational equilibrium from open towards closed. Therefore, recombinant CD73 was incubated with SPR running buffer in the presence of 100 μM APCP and 10 μM ZnCl₂ (closed SPR running buffer) to study the binding of anti-CD73 antibody to the CD73 in the closed conformation. To achieve this, the ABA injection feature in Biacore 8K was used. For open conformation, the ABA injection sequence started with 60 seconds injection of running buffer. Then, CD73 3-fold serial dilution concentration series prepared from CD73 stock (BPS Bioscience) and running buffer were injected for 180 seconds immediately followed by running buffer for 240 seconds. For closed conformation, the normal SPR running buffer was replaced by closed SPR running buffer. Surface was regenerated with 30 seconds injection of 3 M MgCl₂.
Binder,binding result,Kd [nM]
B1,no binding,
B2,,1.66

# Target: T2, recombinant human CD73 (SEQ ID NO:70)
# Assay: as above
# Method: as §1
Binder,Kd [nM],koff [s⁻¹],kon [M⁻¹ s⁻¹]
B1,< 0.449,0.000449,> 1e+06
B2,0.37,,
B3,2.48,0.00155,624000
B4,1.2,0.00107,887000
B5,2.25,0.000953,424000
B6,1.46,0.00117,799000
B7,1.84,0.00101,550000
B8,0.718,0.000949,> 1e+06
B9,2.02,0.00114,565000
B10,6.9,0.00264,382000
B11,2.29,0.00176,770000
B12,1.55,0.00111,715000
B13,1.75,0.00092,524000

# Target: T3, cynomolgus CD73 (SEQ ID NO:72)
# Assay: as above
# Method: as §1
Binder,Kd [nM],koff [s⁻¹],kon [M⁻¹ s⁻¹]
B1,< 0.468,0.000468,> 1e+06
B2,0.734,,

# Target: T4, human CD73 on the cell surface …
# Assay: flow cytometry on MDA-MB-231 cells, PE-conjugated secondary antibody, GMFI
# Method: Cells were stained with the indicated concentration of antibodies for 1 hour on ice. Cells were then washed and stained goat anti-mouse secondary conjugated to PE for 30 minute on ice. Cells were then washed and analyzed by flow cytometry. The GMFI of CD73 staining is graphed (FIG. 13).
row,Binder,EC50 (read off the curve) [µg/mL]
1,B14,~1

# Target: T4, human CD73 on the cell surface …
# Assay: as above
# Remark: another data set of the same source
# Method: The cells were stained with the indicated concentration of antibodies for 30 minutes on ice (FIG. 2A and FIG. 2B). Next, the cells were washed and stained using goat anti-mouse secondary conjugated to phycoerythrin (PE) for 30 minutes on ice. The cells were then washed and analyzed by flow cytometry. Geometric mean fluorescence intensity (GMFI) of CD73 staining was graphed (FIG. 2A and FIG. 2B).
row,Binder,EC50 (read off the curve) [µg/mL]
1,B3,~0.1

# Target: T4, human CD73 on the cell surface …
# Assay: flow cytometry on A375 cells, PE-conjugated secondary antibody, GMFI
row,Binder,EC50 (read off the curve) [µg/mL]
1,B2,~0.1

# Target: T4, human CD73 on the cell surface …
# Assay: flow cytometry on MDA-MB-231 cells, PE-conjugated secondary antibody, GMFI
# Remark: another data set of the same source
row,Binder,EC50 (read off the curve) [µg/mL]
1,B2,~3
